Measurements: PMC2807882
Values belong to the binder of their own block, whether it stands above or below them.

Assays:
[1] = target: T1, Mmp53 (mouse p53) with C-terminal FlAsH tag, labelled with FlAsH (mouse (Mus musculus)), P02340; experiment: dimer-tetramer equilibrium; details: natural protein, chains chain, FlAsH (from FlAsH-EDT2, Lumio Green) on the C-terminal CCPGCC tetra-cysteine tag, remark: other sources report otherwise
T1 chain: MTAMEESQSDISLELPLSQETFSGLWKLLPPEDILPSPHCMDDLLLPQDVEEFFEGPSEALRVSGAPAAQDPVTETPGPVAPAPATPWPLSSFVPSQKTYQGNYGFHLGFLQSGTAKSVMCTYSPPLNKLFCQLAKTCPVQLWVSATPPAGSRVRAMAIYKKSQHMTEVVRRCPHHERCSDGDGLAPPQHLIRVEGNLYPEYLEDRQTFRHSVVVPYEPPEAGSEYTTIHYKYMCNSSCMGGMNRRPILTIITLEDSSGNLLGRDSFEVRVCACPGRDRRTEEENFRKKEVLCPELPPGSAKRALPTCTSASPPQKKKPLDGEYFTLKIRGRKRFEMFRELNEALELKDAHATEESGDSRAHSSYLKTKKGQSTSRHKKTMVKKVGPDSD

[2] = target: T1, Mmp53 (mouse p53) with C-terminal FlAsH …; experiment: AUC; sedimentation velocity with fluorescence detection, FlAsH-labelled protein at 5-500 nM; 150 mM NaCl, 25 mM phosphate pH 7.2, 10% glycerol, BSA 0.2 mg/mL, 1 mM beta-mercaptoethanol, 10°C; tetramer to dimers; Kd expressed in concentration of monomer; details: remark: other sources report otherwise
[3] = target: T2, Mus musculus p53, full length, with C-terminal FlAsH tag, FlAsH-labelled (Mus musculus), P02340; experiment: AUC; sedimentation velocity with fluorescence detection, FlAsH-labelled protein at 5-500 nM (monomer); 150 mM NaCl, 25 mM phosphate pH 7.2, 10% glycerol, BSA 0.2 mg/mL, 1 mM β-mercaptoethanol, 10°C; tetramer to dimers; Kd expressed in concentration of monomer; details: remark: other sources report otherwise
T2 chain: T1 chain

- Kd [1]: 17.2 nM
- fold weaker self-association (dimer-tetramer equilibrium) than Dmp53, Drp53 and ΔNp73β [2]: 10 fold
- stoichiometry N [2]: 4
B1: Mmp53 (mouse p53) with C-terminal FlAsH tag, labelled with FlAsH, P02340 1-390 (natural protein)
chain: T1 chain

- Kd [3]: 17.2 nM
B2: Mus musculus p53, full length, with C-terminal FlAsH tag, FlAsH-labelled, P02340 1-390 (natural protein)
chain: T1 chain
modifications: here or on the partner: FlAsH (from FlAsH-EDT2, an arsenic derivative of fluorescein) on the C-terminal CCPGCC tetra-cysteine tag; FlAsH (from FlAsH-EDT2, an arsenic derivative of fluorescein) on the C-terminal CCPGCC tetra-cysteine tag
